Data published in publication PMC9558310 (ACS Chemical Biology, 2019).

B1: human PLPBP R41Q mutant (natural protein)
chain: not shown
modifications: fully saturated with PLP after purification
B2: tag-free recombinant human pyridoxal 5'-phosphate-binding protein (PLPBP) (natural protein)
chain: not shown
modifications: pyridoxal 5'-phosphate bound at Lys47 (internal aldimine)
B3: Strep-tag recombinant human PLPBP (natural protein)
chain: not shown
modifications: pyridoxal 5'-phosphate bound at Lys47 (internal aldimine)

Target: the molecule itself
Experiment: SEC

| Protein | binding result | stoichiometry N |
| --- | --- | --- |
| B1 | binds | – |
| B2 | – | 2 |
| B3 | – | 2 |
